Measurements: the supplement of paper PMC9170038

Test system: MS2 coat protein
Assay: apparent KD of MS2 coat protein; designed switch direction (-1 OFF switch, 1 ON switch): -1; higher = weaker reporter binding
Procedure, shortened: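 The buffer was Tris-HCl pH 7.5 with KCl, MgCl2, BSA, DTT, tRNA and Tween-20. In it, SNAP-549-labelled MS2 coat protein was titrated in doubling steps from 0.7 or 1.5 nM to 3 µM over chip-bound RNA switches transcribed by stalled E. coli RNA polymerase on Illumina chips. Apparent KD is the per-design median over clusters of curve fits to normalised fluorescence.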

[1] = Eterna round: R95, input ligand: FMN 200 uM
[2] = Eterna round: R95, input ligand: microRNA oligo, concentration not stated
[3] = Eterna round: R95, input ligand: none
[4] = input ligand: microRNA oligo, concentration not stated

Sequence	apparent KD of MS2 coat protein [1] [nM]	apparent KD of MS2 coat protein [2] [nM]	apparent KD of MS2 coat protein [3] [nM]	apparent KD of MS2 coat protein (input ligand: FMN 200 uM) [nM]	apparent KD of MS2 coat protein (input ligand: none) [nM]	apparent KD of MS2 coat protein [4] [nM]
AGUAGAUCUACGCUUGCGUGGAUCUGCUAUGCAGGUGUUACAUGAGGAUCACCCAUGUCCUCGUUUGCUCGUCUUAU [JL turnoff v2 99.13] (puzzle: Sensor v3, turn-off variant 2)	333	693	448	–	–	–
GUGCAACAUGAGGAUCACCCAUGUGAGGAUAUGCGAAUUUCAUCAAAAGAUGAAAUUUGCAGAAGGCACAGCAC [Omei Ex1 A13] (Eterna round: R97, puzzle: Exclusion 1)	–	–	–	20.5	15.9	–
GUGUAGUAAGGAUAUAGAAAGAGGGAGUAAGAUAGAGAGUUCUAGAAGGUACAUGAGGAUCACCCAUGUUGGAG [JR_Exclu4_Sub082] (puzzle: Exclusion 4)	24.9	28.9	27.8	–	–	–
CGUUCUCGAGUCAGGAUAUCGACUAAUUCCCAAGUCGAGAAGGGACAUGAGGAUCACCCAUGUAAAGAAAAGAA [Ainteedle] (puzzle: Brourd's mod of Exclusion 4)	118	30.1	30.3	–	–	–
GGUUAUUCUGUAUGGGUACACAUGAGGAUCACCCAUGUACAGAGGUCUACCCUAAUAUAGCAAGCUGGCCCGUCCUA [Eternabot (L1) Solution 24] (Eterna round: R97, puzzle: Sensor, turn-off variant 1)	–	–	–	148	132	–
CGUGUGUGAGGAUAUGACAAUGGUAUCUUCGGAUACCAUUGUCAGAAGGUACAUGAGGAUCACCCAUGUAGAUC [Exclusion 4 - Mod Brourd Ex 4-3: 20 v.2] (puzzle: Exclusion 4)	–	35.6	–	–	–	–
GAUUAUGCGAGCUUUAGGGACAUGAGGAUCACCCAUGUUCGUCUUAUUGGUCUGAGUACACUGACAUACCUAAAUCU [JMF 63] (puzzle: Sensor v3, turn-off variant 1)	13.3	15.9	12.8	–	–	–
UUUUAACAUGAGGAUCACCCAUGUGAGGAUAUGGUUUUUUUUUUUUUUUUUUUUUUUUCCAGAAGGCACAUUUU [My solution] (Eterna round: R96, puzzle: Exclusion 1)	–	–	–	269	31.6	44.2
GAAAAGGUAGGAUAUACGAAAACAAAGGGUAGAAACAAAACACAUGAGGAUCACCCAUGUAGAAGGACCAAAAG [salish99_ex2_r3_097] (Eterna round: R96, puzzle: Exclusion 2)	–	–	–	–	–	30.8
AAGCCUCUUGUCAGGAUAUCUGUCGGUCCUCCAAGAGAGAAGGGACAUGAGGAUCACCCAUGUAAGCCCAGGGA [Qubere] (puzzle: Brourd's mod of Exclusion 4)	–	13.5	–	–	–	–
GGUCAAGAACAGCUCCGCGCUGCCCUCGACCGCUCAUUUACAUGAGGAUCACCCAUGUUUUUUGCUUGUCUUGUUAC [Usvetive] (puzzle: Sensor v3, turn-off variant 2)	16.9	91.8	16.5	–	–	–
CAGUACUGAGGAUAUACAUGAGGAUCACCCAUGUGUUCCAGCUAGGAGACUAGCAAAAGUAGAAGGCAGUACUG [salish99_ex3_r3_074] (puzzle: Exclusion 3)	–	23.5	–	–	–	–
CCACGUCCGUACGUAUACUUGUCUCCUGAAAGAAAGGGCACAUGAGGAUCACCCAUGUUUUUGCUCGUCUUAUGAGC [JR_Sensorv2_tov2_Sub714] (Eterna round: R96, puzzle: Sensor v2, turn-off variant 2)	–	–	–	20.4	22.8	40.9
CAUACUGAAGUUAGGAUAUUCGAACGUAUACGGAUGGAGAAGGGACAUGAGGAUCACCCAUGUAGUUAGUAAAG [EX-4 Malc #10] (puzzle: Brourd's mod of Exclusion 4)	17.3	17.4	22.3	–	–	–
AGAUGGCGAGGAUAUACAUGAGGAUCACCCAUGUGAGAGAAAAGAGUGAGGAAGAAAAGUAGAAGGCGCUGUCA [Mat - Exclusion 3 - Mod of Salish D17] (puzzle: Exclusion 3)	–	71	–	–	–	–
CCCACAAGCUUUUUGCUCGACAUGAGGAUCACCCAUGUUGAAUGGGUUAUAUAUAUAUGAAACAUAUAUAUAUACCU [-24.7, -47.5 kcal, A 32%] (Eterna round: R97, puzzle: Sensor, turn-off variant 1)	–	–	–	20.4	20.2	–
GUAAUUAAUGUAGGAUAUGCAAGGCGAACCUAAGCAGAAGGACAUGUGGAUCACCCAUGACAUGAGGAUCACCCAUGUAUCGCU [salish99_ExNG1_r4_005] (Eterna round: R96, puzzle: Exclusion NG 1)	–	–	–	109	212	122

Sequence	apparent KD of MS2 coat protein [1] [nM]	apparent KD of MS2 coat protein [2] [nM]	apparent KD of MS2 coat protein [3] [nM]	apparent KD of MS2 coat protein (input ligand: FMN 200 uM) [nM]	apparent KD of MS2 coat protein (input ligand: none) [nM]	apparent KD of MS2 coat protein [4] [nM]
AAUUUACAUGAGGAUCACCCAUGUCAGGAUAUGGUUUUAUUUUUUUUUUUUUUUUAUUCCAGAAGGGACAGUUA (puzzle: Exclusion 1)	24.2	17	14.8	–	–	–
AGUAGUAGUAUCCGAUCCUACAUGAGGAUCACCCAUGUAGCUGGACGUGCACGCGAUGCUCGUCAGACUACCAGAUG [salish99_TOv1_r3_044] (puzzle: Sensor v3, turn-off variant 1)	181	131	150	–	–	–
ACUUAUUGAGGAUAUACAUUAAAUUACAUGAGGAUCACCCAUGUUCUUCAAUGUAUAUAUGCAGAAGGCAGAAGAA [JL-ex5-4.28 Malcolm mod] (Eterna round: R97, puzzle: Exclusion 5)	–	–	–	13.4	12.8	–
GUGUACAGAGGAUAUACAAGAGGAGUUACGAAAGUAACUUCACAUGAGGAUCACCCAUGUAGAAGGCUGUACAC [Dot plot directed v7] (puzzle: Exclusion 2)	–	21.2	–	–	–	–
CCGUGCAGGCUGCGGUCCUACAUGAGGAUCACCCAUGUGGUCCGGUGGCGUGGGUCGCCGGACUUGGCUCGUCUUGU [salish99_S_TOV1_R5_016] (Eterna round: R97, puzzle: Sensor, turn-off variant 1)	–	–	–	75.1	86.3	–
CCAGCUCGUGUUAGGAUAUCCAAGCUGCGGCUGGUGGAGAAGGGACAUGAGGAUCACCCAUGUAAUAAAGAAAA [On] (puzzle: Brourd's mod of Exclusion 4)	–	21.4	–	–	–	–
CUGGUCCGAGGAUAUUUUAUGUGAUACAUGAGGAUCACCCAUGUUAUAUGAUGGAUGUUAAAAGAAGGCGGACUAG [Mat - Exclusion 5 - JL mod - D80] (puzzle: Exclusion 5)	77	102	114	–	–	–
AGUUCUAACACGUUGGUGUUAGUACCAUAAGCUUGUGAUACAUGAGGAUCACCCAUGUCCUCAUAAGCUCGUCUUAU [salish99_TOv2_r3_1001] (Eterna round: R96, puzzle: Sensor v3, turn-off variant 2)	–	–	–	25.2	27.3	563
GAGAAGUGAGGAUAUGCGGUAAGGAUGAAAGGAAGGAAUGAGUAGAAGGCACAUGAGGAUCACCCAUGUAGAGU [JR_Exclu4_Sub081] (puzzle: Exclusion 4)	19.5	18.5	21.1	–	–	–
AAAUGCAAGUAAAGAUUCUACAUGAGGAUCACCCAUGUGCUCGUCUUAUAAAGUACUAUCACGAAAGUGAUAGUACA [Sensor 3, v1 - 35] (puzzle: Sensor v3, turn-off variant 1)	14.2	100	14.2	–	–	–
GCUAGUCAUGUCAGGAUAUGCUGUACCUUGGUACAGCAGAAGGGACAUGAGGAUCACCCAUGUGCCUAGCUAGC [JL-BMX4-4.07] (Eterna round: R97, puzzle: Brourd's mod of Exclusion 4)	–	–	–	412	37.7	–
UUUUGACAUGAGGAUCACCCAUGUUAGGAUAUCUUAAGGGAUGGAACAGGGUCGGAACAGAGAAGGAGCGUGGG [EX1 B.26] (Eterna round: R97, puzzle: Exclusion 1)	–	–	–	82.4	47.9	–
AAGGUGGCAGGAUAUACAUGAGGAUCACCCAUGUGAACGUAAGGAGACUCUCUCAAAGGUAGAAGGGUCGGUUC [Eternabot (L2) Solution 1] (Eterna round: R97, puzzle: Exclusion 3)	–	–	–	56.3	121	–
CAGUACUGAGGAUAUACAUGAGGAUCACCCAUGUGUUCCAGCUAGGAGACUAGCAAAAGUAGAAGGCAGUACUG [salish99_ex3_r3_074] (Eterna round: R96, puzzle: Exclusion 3)	–	–	–	523	25.1	20
AAGGAUAGAGGAUAUACAUAGAUACAGAUUCAUGUAGAAUUACAUGAGGAUCACCCAUGUAGAAGGCUAUCCUA [Fiskers Ex 2 - 1] (puzzle: Exclusion 2)	–	285	–	–	–	–
UACAUGAGGAUCACCCAUGUUUUGUCGUGUAUGGUAUUUAUCUAGGAUAUCAAUGAAUUUAUUUAUGAGAAGGAGAAUAUUAAU [JMF's solution 37] (Eterna round: R96, puzzle: Exclusion NG 3)	–	–	–	–	–	30.7
GGAUAAAAGUCAGGAUAUACGUAUCACUAACGAGUAGAAGGGACACAUGAGGAUCACCCAUGUGAGUUCUCAAUAAGAAACACG [Prohibition 62 - Jieux - Exclusion NG 1] (Eterna round: R96, puzzle: Exclusion NG 1)	–	–	–	13.8	14.9	12.2
